Reference: article PMC11818568, “Characterization of Tetrathionate Hydrolase from Acidothermophilic Sulfur-Oxidizing Archaeon Metallosphaera cuprina Ar-4” (International Journal of Molecular Sciences, 2025)

Substrate: O=S(=O)(O)SSS(=O)(=O)O
Assay: HPLC discontinuous assay, Michaelis-Menten
Type: biochemical, Metallosphaera cuprina
Conditions: pH 6.0, 95 °C, 1.15 µg enzyme, K2S4O6 varied

B1: TTHMc (tetrathionate hydrolase, Mcup_1281) (Metallosphaera cuprina Ar-4) (protein)
chain: PSITQIVSQVITPIPQPIVRTYDIYNTTYFPYEVKVTYYPGNATSQNLGLPGSWLVTNGGQSHNAVVDTTCTELIQGVSWQQDFAHMAGAALIPLSAPENMLPGSNVMGTRSALVMLTQMVGEPLGVSLADNLLFVEEDSGPGSIFAVNPLNGQVVWYATGLASYAMNNPIVYNGIVYVTVGDVGFNFANFVHYENGQYSAIHRGMAYGAIYAFNASDGILLWMRFTMGEAMPAPAVYDGILAYSDGGGEFVGVNATTGQTLWMDSIPGLFDSMSSVNYYVMPNGTPLFVAGFTSLTEPFGLLVAVNGITGKMVWNASLPSPNKPFNTGMGDVPPAVDQSLGIVVQSTVANAEPNGTVDTMVLAVNATNGHVLWVTNLGRGYTPPAFKGAVPMIYNNTVFVGAPSLGTEFALNISTGRIIWQTRLNGISLPPTAPGGPRGSATIYDNLLWIAGGPNVYVLNPHNGDLLQQYYVGGRFGIVNPVIAGNTMYLTNSYGWVIAIPLYQVFPLFQYYTNS
notes: native enzyme purified from tetrathionate-grown M. cuprina Ar-4 cells (soluble fraction; DEAE, HIC, size exclusion, Q-Sepharose); no tag; SDS band about 54 kDa; no homodimer observed
Protein B1 has a Km of 350 µM.
